Measurements published in PMC12678314.

Target: glutamate-1-semialdehyde aminotransferase (GSAAT), endogenous (Arabidopsis thaliana (endogenous in leaf extracts; the plant of the chloroplast extracts is not named)) (UniProt P42799)
Assay: non-reducing SDS-PAGE with immunoblot; wild-type Arabidopsis leaf extracts, untreated or pretreated with H2O2, diamide or DTT for 30 min at room temperature; non-reducing 8% SDS-PA gel (the text says non-denaturing PA gel); GSAAT-specific antibody

glutamate-1-semialdehyde aminotransferase (GSAAT), endogenous, sequence (P42799 39-474): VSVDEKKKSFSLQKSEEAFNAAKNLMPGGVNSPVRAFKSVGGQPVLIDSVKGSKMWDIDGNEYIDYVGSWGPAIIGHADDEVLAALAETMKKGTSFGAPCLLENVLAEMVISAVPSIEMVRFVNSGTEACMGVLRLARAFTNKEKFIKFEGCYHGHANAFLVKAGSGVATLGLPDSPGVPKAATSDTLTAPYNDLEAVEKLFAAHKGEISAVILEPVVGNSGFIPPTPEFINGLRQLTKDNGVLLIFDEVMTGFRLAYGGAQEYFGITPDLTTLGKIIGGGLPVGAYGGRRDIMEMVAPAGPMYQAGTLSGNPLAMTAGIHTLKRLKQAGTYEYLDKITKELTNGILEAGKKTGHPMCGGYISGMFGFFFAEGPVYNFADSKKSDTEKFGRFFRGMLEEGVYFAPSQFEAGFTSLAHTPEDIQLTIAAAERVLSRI

A stoichiometry N of 2 was found for “glutamate-1-semialdehyde aminotransferase (GSAAT), endogenous (from UniProt P42799 39-474) (enzyme)” in this work.
